This is an account of results in the supplement of paper PMC11246515.

A short description of this data set: total protein half-life in vivo (active degradation + dilution); higher = more stable protein.
[1] abbreviates: E. coli NCM3722 delta-clpP delta-lon delta-hslV, growth: N-lim chemostat, doubling time 6 h.
Where [2] appears, read: E. coli NCM3722 delta-clpP, growth: N-lim chemostat, doubling time 6 h.
[3] abbreviates: E. coli NCM3722 delta-hslV, growth: N-lim chemostat, doubling time 6 h.
Setting [4] is: E. coli NCM3722 delta-lon, growth: N-lim chemostat, doubling time 6 h.
Setting [5] is: E. coli NCM3722 delta-smpB, growth: N-lim chemostat, doubling time 6 h.
Where [6] appears, read: wild type E. coli NCM3722, growth: C-lim chemostat, doubling time 6 h.
[7] abbreviates: wild type E. coli NCM3722, growth: C-lim chemostat, doubling time 12 h.
Where [8] appears, read: wild type E. coli NCM3722, growth: N-lim chemostat, doubling time 6 h.
Setting [9] is: wild type E. coli NCM3722, growth: P-lim chemostat, doubling time 6 h.
The mark [10] stands for this setting: wild type E. coli NCM3722, growth: P-lim chemostat, doubling time 12 h.
Setting [11] is: wild type E. coli NCM3722, growth: C-lim chemostat, doubling time 3 h.
The mark [12] stands for this setting: wild type E. coli NCM3722, growth: N-lim chemostat, doubling time 12 h.

± gives the standard deviation of the averaged measurements.

For the sequence “MIVKRPVSASLARAFFYIVLLSILSTGIALLTLASSLRDAEAINIAGSLRMQSYRLGYDLQSGSPQLNAHRQLFQQALHSPVLTNLNVWYVPEAVKTRYAHLNANWLEMNNRLSKGDLPWYQANINNYVNQIDLFVLALQHYAERKMLLVVAISLAGGIGIFTLVFFTLRRIRHQVVAPLNQLVTASQRIEHGQFDSPPLDTNLPNELGLLAKTFNQMSSELHKLYRSLEASVEEKTRDLHEAKRRLEVLYQCSQALNTSQIDVHCFRHILQIVRDNEAAEYLELNVGENWRISEGQPNPELPMQILPVTMQETVYGELHWQNSHVSSSEPLLNSVSSMLGRGLYFNQAQKHFQQLLLMEERATIARELHDSLAQVLSYLRIQLTLLKRSIPEDNATAQSIMADFSQALNDAYRQLRELLTTFRLTLQQADLPSALREMLDTLQNQTSAKLTLDCRLPTLALDAQMQVHLLQIIREAVLNAMKHANASEIAVSCVTAPDGNHTVYIRDNGIGIGEPKEPEGHYGLNIMRERAERLGGTLTFSQPSGGGTLVSISFRSAEGEESQLM”, the “total protein half-life in vivo” value is, setting by setting: under setting [1], 7.015 ± 0.027 h; under setting [2], 6.09 ± 0.081 h; under setting [3], 6.03 ± 0.085 h; under setting [4], 6.24 ± 0.29 h; under setting [5], 5.91 ± 0.37 h; under setting [6], 6.73 ± 0.72 h. Further, the “total protein half-life in vivo” value runs as follows: under setting [7], 12.6 ± 0.26 h; under setting [8], 6.0563 ± 0.0037 h; under setting [9], 5.97 ± 0.28 h; under setting [10], 11.7 ± 2.1 h.
For the sequence “MGMLEARELLCERDERTLFSGLSFTLNAGEWVQITGSNGAGKTTLLRLLTGLSRPDAGEVLWQGQPLHQVRDSYHQNLLWIGHQPGIKTRLTALENLHFYHRDGDTAQCLEALAQAGLAGFEDIPVNQLSAGQQRRVALARLWLTRATLWILDEPFTAIDVNGVDRLTQRMAQHTEQGGIVILTTHQPLNVAESKIRRISLTQTRAA”, the “total protein half-life in vivo” value by setting is: under setting [1], 6.22 h; under setting [5], 5.33 h; under setting [8], 5.94 ± 0.86 h.
“MRNFDLSPLYRSAIGFDRLFNHLENNQSQSNGGYPPYNVELVDENHYRIAIAVAGFAESELEITAQDNLLVVKGAHADEQKERTYLYQGIAERNFERKFQLAENIHVRGANLVNGLLYIDLERVIPEAKKPRRIEIN [P0C054]”: the “total protein half-life in vivo” value by setting is: under setting [2], 3.11 ± 0.15 h; under setting [3], 1.47 ± 0.1 h; under setting [4], 2.83 ± 0.24 h; under setting [5], 1.35 ± 0.082 h; under setting [11], 1.2 ± 0.21 h; under setting [6], 1.83 ± 0.025 h. The “total protein half-life in vivo” value by setting is: under setting [7], 1.87 ± 0.3 h; under setting [8], 1.65 ± 0.42 h; under setting [12], 2.7 ± 0.45 h; under setting [9], 1.58 ± 0.077 h; under setting [10], 3.08 ± 0.14 h.
For the sequence “MIGRLRGIIIEKQPPLVLIEVGGVGYEVHMPMTCFYELPEAGQEAIVFTHFVVREDAQLLYGFNNKQERTLFKELIKTNGVGPKLALAILSGMSAQQFVNAVEREEVGALVKLPGIGKKTAERLIVEMKDRFKGLHGDLFTPAADLVLTSPASPATDDAEQEAVAALVALGYKPQEASRMVSKIARPDASSETLIREALRAAL [P0A809]”, the “total protein half-life in vivo” value under setting [1] was 5.02 ± 0.64 h; the “total protein half-life in vivo” value under setting [2] was found to be 4.88 ± 0.9 h; the “total protein half-life in vivo” value under setting [3] worked out at 5.46 ± 0.47 h; the “total protein half-life in vivo” value under setting [4] came out at 4.88 ± 0.49 h; the “total protein half-life in vivo” value under setting [5] amounted to 5.59 ± 0.069 h; the “total protein half-life in vivo” value under setting [11] worked out at 2.99 ± 0.28 h. Also, the “total protein half-life in vivo” value runs as follows: under setting [6], 5.04 ± 0.43 h; under setting [7], 10.3 ± 3.1 h; under setting [8], 4.95 ± 0.26 h; under setting [12], 7.6 ± 0.43 h; under setting [9], 3.73 ± 0.86 h; under setting [10], 10.13 ± 0.068 h.
In the case of “MESKRLDNAALAAGISPNYINAHGKPQSISAETKRRLLDAMHQRTATKVAVTPVPNVMVYTSGKKMPMVVEGSGEYSWLLTTEEGTQYKGHVTGGKAFNLPTKLPEGYHTLTLTQDDQRAHCRVIVAPKRCYEPQALLNKQKLWGACVQLYTLRSEKNWGIGDFGDLKAMLVDVAKRGGSFIGLNPIHALYPANPESASPYSPSSRRWLNVIYIDVNAVEDFHLSEEAQAWWQLPTTQQTLQQARDADWVDYSTVTALKMTALRMAWKGFAQRDDEQMAAFRQFVAEQGDSLFWQAAFDALHAQQVKEDEMRWGWPAWPEMYQNVDSPEVRQFCEEHRDDVDFYLWLQWLAYSQFAACWEISQGYEMPIGLYRDLAVGVAEGGAETWCDRELYCLKASVGAPPDILGPLGQNWGLPPMDPHIITARAYEPFIELLRANMQNCGALRIDHVMSMLRLWWIPYGETADQGAYVHYPVDDLLSILALESKRHRCMVIGEDLGTVPVEIVGKLRSSGVYSYKVLYFENDHEKTFRAPKAYPEQSMAVAATHDLPTLRGYWECGDLTLGKTLGLYPDEVVLRGLYQDRELAKQGLLDALHKYGCLPKRAGHKASLMSMTPTLNRGLQRYIADSNSALLGLQPEDWLDMAEPVNIPGTSYQYKNWRRKLSATLESMFADDGVNKLLKDLDRRRRAAAKKK”, the “total protein half-life in vivo” value runs as follows: under setting [1], 6.24 ± 0.17 h; under setting [2], 6.29 ± 0.23 h; under setting [4], 4.12 ± 1.7 h; under setting [5], 5.57 ± 0.12 h; under setting [6], 6.27 ± 0.46 h; under setting [7], 13.5 ± 1.4 h. Besides, the “total protein half-life in vivo” value under setting [8] was 6.03 ± 0.061 h, the “total protein half-life in vivo” value under setting [12] was determined as 12.1 ± 0.58 h, the “total protein half-life in vivo” value under setting [9] was determined as 5.25 ± 0.14 h and the “total protein half-life in vivo” value under setting [10] came out at 10.3 ± 0.19 h.
With “MAIPAFGLGTFRLKDDVVISSVITALELGYRAIDTAQIYDNEAAVGQAIAESGVPRHELYITTKIWIENLSKDKLIPSLKESLQKLRTDYVDLTLIHWPSPNDEVSVEEFMQALLEAKKQGLTREIGISNFTIPLMEKAIAAVGAENIATNQIELSPYLQNRKVVAWAKQHGIHITSYMTLAYGKALKDEVIARIAAKHNATPAQVILAWAMGEGYSVIPSSTKRKNLESNLKAQNLQLDAEDKKAIAALDCNDRLVSPEGLAPEWD”, the “total protein half-life in vivo” value under setting [1] was found to be 4.33 ± 0.17 h; the “total protein half-life in vivo” value under setting [2] came out at 4.57 ± 0.071 h; the “total protein half-life in vivo” value under setting [3] came to 4.59 ± 0.27 h; the “total protein half-life in vivo” value under setting [4] amounted to 4.76 ± 0.34 h; the “total protein half-life in vivo” value under setting [5] was 4.78 ± 0.36 h; the “total protein half-life in vivo” value under setting [11] came out at 3.05 ± 0.099 h. The “total protein half-life in vivo” value is 5.39 ± 0.67 h under setting [6]; 10.7 ± 6.2 h under setting [7]; 4.615 ± 0.044 h under setting [8]; 8.62 ± 3.3 h under setting [12]; 5.21 ± 0.41 h under setting [9]; 11.4 ± 0.5 h under setting [10].
In the case of “MTPWFLYLIRTADNKLYTGITTDVERRYQQHQSGKGAKALRGKGELTLVFSAPVGDRSLALRAEYRVKQLTKRQKERLVAEGAGFAELLSSLQTPEIKSD”, the “total protein half-life in vivo” value by setting is: under setting [1], 6.282 ± 0.0083 h; under setting [9], 1.75 h.
